Laboratory results reported in US20100249029A1 (Novo Nordisk, published 2010).
Values belong to the binder of their own block, whether it stands above or below them.

What was measured:
[1] = target: T1, Biotinylated prolactin receptor BirATag-Ser-PRLR (1-210) (human, UniProt P16471 25-234, biotinylated (BirA tag, biotin added during expression in E. coli)); experiment: SPR (Biacore); biotinylated BirATag-Ser-PRLR (1-210) amine-coupled to CM5 chip, variant injected at 3.13-50 nM; STDEV 0.021
T1 construct: range 1-210; also called BirA-Ser-PRLR (1-210); not shown: BirA tag (biotin acceptor tag)
T1 sequence: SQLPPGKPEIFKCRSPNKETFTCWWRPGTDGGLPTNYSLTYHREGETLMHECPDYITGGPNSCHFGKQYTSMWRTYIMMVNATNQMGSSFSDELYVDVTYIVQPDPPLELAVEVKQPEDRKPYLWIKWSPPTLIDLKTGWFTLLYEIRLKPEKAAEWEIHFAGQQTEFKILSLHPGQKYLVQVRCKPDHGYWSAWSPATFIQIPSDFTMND
Protocol: (§1) Biotinylated prolactin receptor BirATag-Ser-PRLR (1-210) was diluted to 20 μg/ml in 10 mM sodium acetate pH 4.0 (Biacore BR-1003-49) and immobilized on a CM5 chip (Biacore BR-1006-68) with the immobilization reagents 1-ethyl-3-(3-dimethylaminopropyl) carbodiimide hydrochloride (EDC), N-hydroxysuccinimide (NHS) and 1.0 M ethanolamine-HCl pH 8.5 (Biacore BR1000-50). The immobilization level was 1500 RU. The PRL variants prepared as described in Example 5 were diluted to a series of concentrations as following: 3.13/6.25/12.5/25/50 nM and run through the PRLR immobilized chip using HBS-EP (10 mM HEPES pH 7.4; 150 mM NaCl; 3 mM EDTA; 0.005% v/v Tween-20) as the running buffer under the following conditions: […]

[2] = target: T1, Biotinylated prolactin receptor …; experiment: SPR (Biacore); biotinylated BirATag-Ser-PRLR (1-210) amine-coupled to CM5 chip, variant injected at 3.13-50 nM; STDEV 0.1273
Protocol: as §1

[3] = target: T1, Biotinylated prolactin receptor …; experiment: SPR (Biacore); biotinylated BirATag-Ser-PRLR (1-210) amine-coupled to CM5 chip, variant injected at 3.13-50 nM; STDEV 0.3606
Protocol: as §1

[4] = target: T1, Biotinylated prolactin receptor …; experiment: SPR (Biacore); biotinylated BirATag-Ser-PRLR (1-210) amine-coupled to CM5 chip, variant injected at 3.13-50 nM; STDEV 0.049
Protocol: as §1

[5] = target: T1, Biotinylated prolactin receptor …; experiment: SPR (Biacore); biotinylated BirATag-Ser-PRLR (1-210) amine-coupled to CM5 chip, variant injected at 3.13-50 nM; STDEV 0.2546
Protocol: as §1

[6] = target: T1, Biotinylated prolactin receptor …; experiment: SPR (Biacore); biotinylated BirATag-Ser-PRLR (1-210) amine-coupled to CM5 chip, variant injected at 3.13-50 nM; STDEV 0.0636
Protocol: as §1

[7] = target: T1, Biotinylated prolactin receptor …; experiment: SPR (Biacore); biotinylated BirATag-Ser-PRLR (1-210) amine-coupled to CM5 chip, variant injected at 3.13-50 nM; STDEV 0.11
Protocol: as §1

[8] = target: T1, Biotinylated prolactin receptor …; experiment: SPR (Biacore); biotinylated BirATag-Ser-PRLR (1-210) amine-coupled to CM5 chip, variant injected at 3.13-50 nM; STDEV 0.085
Protocol: as §1

[9] = target: T1, Biotinylated prolactin receptor …; experiment: SPR (Biacore); biotinylated BirATag-Ser-PRLR (1-210) amine-coupled to CM5 chip, variant injected at 3.13-50 nM; STDEV 0.064
Protocol: as §1

[10] = target: T1, Biotinylated prolactin receptor …; experiment: SPR (Biacore); biotinylated BirATag-Ser-PRLR (1-210) amine-coupled to CM5 chip, variant injected at 3.13-50 nM; STDEV 0.057
Protocol: as §1

[11] = target: T1, Biotinylated prolactin receptor …; experiment: SPR (Biacore); biotinylated BirATag-Ser-PRLR (1-210) amine-coupled to CM5 chip, variant injected at 3.13-50 nM; STDEV 0.18
Protocol: as §1

[12] = target: T1, Biotinylated prolactin receptor …; experiment: SPR (Biacore); biotinylated BirATag-Ser-PRLR (1-210) amine-coupled to CM5 chip, variant injected at 3.13-50 nM; STDEV 0.035
Protocol: as §1

B1: Ser-PRL D68N, E70K, Q73L, G129R, K190R (ligand)
chain: SLPICPGGAARCQVTLRDLFDRAVVLSHYIHNLSSEMFSEFDKRYTHGRGFITKAINSCHTSSLATPENKKQALQMNQKDFLSLIVSILRSWNEPLYHLVTEVRGMQEAPEAILSKAVEIEEQTKRLLERMELIVSQVHPETKENEIYPVWSGLPSLQMADEESRLSAYYNLLHCLRRDSHKIDNYLKLLRCRIIHNNNC
Kd [1]: 1.2 nM

B3: Ser-PRL N31R, G129R, K190R (ligand)
chain: SLPICPGGAARCQVTLRDLFDRAVVLSHYIHRLSSEMFSEFDKRYTHGRGFITKAINSCHTSSLATPEDKEQAQQMNQKDFLSLIVSILRSWNEPLYHLVTEVRGMQEAPEAILSKAVEIEEQTKRLLERMELIVSQVHPETKENEIYPVWSGLPSLQMADEESRLSAYYNLLHCLRRDSHKIDNYLKLLRCRIIHNNNC
Kd [3]: 2.01 nM

B5: Ser-PRL N31E, G129R, K190R (ligand)
chain: SLPICPGGAARCQVTLRDLFDRAVVLSHYIHELSSEMFSEFDKRYTHGRGFITKAINSCHTSSLATPEDKEQAQQMNQKDFLSLIVSILRSWNEPLYHLVTEVRGMQEAPEAILSKAVEIEEQTKRLLERMELIVSQVHPETKENEIYPVWSGLPSLQMADEESRLSAYYNLLHCLRRDSHKIDNYLKLLRCRIIHNNNC
Kd [5]: 2.7 nM

B7: Ser-PRL G129R, K190R (ligand)
chain: SLPICPGGAARCQVTLRDLFDRAVVLSHYIHNLSSEMFSEFDKRYTHGRGFITKAINSCHTSSLATPEDKEQAQQMNQKDFLSLIVSILRSWNEPLYHLVTEVRGMQEAPEAILSKAVEIEEQTKRLLERMELIVSQVHPETKENEIYPVWSGLPSLQMADEESRLSAYYNLLHCLRRDSHKIDNYLKLLRCRIIHNNNC
Kd [7]: 5.1 nM

B9: Ser-PRL S33A Q73L G129R K190R (ligand)
chain: SLPICPGGAARCQVTLRDLFDRAVVLSHYIHNLASEMFSEFDKRYTHGRGFITKAINSCHTSSLATPEDKEQALQMNQKDFLSLIVSILRSWNEPLYHLVTEVRGMQEAPEAILSKAVEIEEQTKRLLERMELIVSQVHPETKENEIYPVWSGLPSLQMADEESRLSAYYNLLHCLRRDSHKIDNYLKLLRCRIIHNNNC
Kd [9]: 5 nM

B10: Ser-PRL D68N, Q73L, G129R, K190R (ligand)
chain: SLPICPGGAARCQVTLRDLFDRAVVLSHYIHNLSSEMFSEFDKRYTHGRGFITKAINSCHTSSLATPENKEQALQMNQKDFLSLIVSILRSWNEPLYHLVTEVRGMQEAPEAILSKAVEIEEQTKRLLERMELIVSQVHPETKENEIYPVWSGLPSLQMADEESRLSAYYNLLHCLRRDSHKIDNYLKLLRCRIIHNNNC
Kd [10]: 1.2 nM

B11: Ser-PRL S38I, D68N, G129R, I182V (ligand)
chain: SLPICPGGAARCQVTLRDLFDRAVVLSHYIHNLSSEMFIEFDKRYTHGRGFITKAINSCHTSSLATPENKEQAQQMNQKDFLSLIVSILRSWNEPLYHLVTEVRGMQEAPEAILSKAVEIEEQTKRLLERMELIVSQVHPETKENEIYPVWSGLPSLQMADEESRLSAYYNLLHCLRRDSHKVDNYLKLLKCRIIHNNNC
Kd [11]: 2.8 nM

B12: PRL S61A, D68N, G71A, Q73A, G129R, K190R (ligand)
chain: LPICPGGAARCQVTLRDLFDRAVVLSHYIHNLSSEMFSEFDKRYTHGRGFITKAINSCHTASLATPENKEAAAQMNQKDFLSLIVSILRSWNEPLYHLVTEVRGMQEAPEAILSKAVEIEEQTKRLLERMELIVSQVHPETKENEIYPVWSGLPSLQMADEESRLSAYYNLLHCLRRDSHKIDNYLKLLRCRIIHNNNC
notes: Printed without the prefix Ser-. 'G71A' is copied as printed
Kd [12]: 1.7 nM

The next lines start with the values.

Kd [2]: 2.3 nM
B2: Ser-PRL S61A, D68N, G129R, K190R (ligand)
chain: SLPICPGGAARCQVTLRDLFDRAVVLSHYIHNLSSEMFSEFDKRYTHGRGFITKAINSCHTASLATPENKEQAQQMNQKDFLSLIVSILRSWNEPLYHLVTEVRGMQEAPEAILSKAVEIEEQTKRLLERMELIVSQVHPETKENEIYPVWSGLPSLQMADEESRLSAYYNLLHCLRRDSHKIDNYLKLLRCRIIHNNNC

Kd [4]: 1.3 nM
B4: Ser-PRL S61A, Q73L, G129R, K190R (ligand)
chain: SLPICPGGAARCQVTLRDLFDRAVVLSHYIHNLSSEMFSEFDKRYTHGRGFITKAINSCHTASLATPEDKEQALQMNQKDFLSLIVSILRSWNEPLYHLVTEVRGMQEAPEAILSKAVEIEEQTKRLLERMELIVSQVHPETKENEIYPVWSGLPSLQMADEESRLSAYYNLLHCLRRDSHKIDNYLKLLRCRIIHNNNC

Kd [6]: 0.3 nM
B6: Ser-PRL S38I, S61A, D68N, Q73L, G129R, K190R (ligand)
chain: SLPICPGGAARCQVTLRDLFDRAVVLSHYIHNLSSEMFIEFDKRYTHGRGFITKAINSCHTASLATPENKEQALQMNQKDFLSLIVSILRSWNEPLYHLVTEVRGMQEAPEAILSKAVEIEEQTKRLLERMELIVSQVHPETKENEIYPVWSGLPSLQMADEESRLSAYYNLLHCLRRDSHKIDNYLKLLRCRIIHNNNC

Kd [8]: 1.1 nM
B8: Ser-PRL S61A, D68N, Q73L, G129R, K190R (ligand)
chain: SLPICPGGAARCQVTLRDLFDRAVVLSHYIHNLSSEMFSEFDKRYTHGRGFITKAINSCHTASLATPENKEQALQMNQKDFLSLIVSILRSWNEPLYHLVTEVRGMQEAPEAILSKAVEIEEQTKRLLERMELIVSQVHPETKENEIYPVWSGLPSLQMADEESRLSAYYNLLHCLRRDSHKIDNYLKLLRCRIIHNNNC
